Experimental findings from article PMC12658286 are described below.

Series [1] is described as follows: Flag-PD-L1 IP with HA-Ub, Western blot. The settings on record: glycan gained; control: control-transfected HepG2 (vector / siNC), MG132. On the technique in general: A western blot detects proteins with antibodies after separation by electrophoresis.
A short description of the next series: Western blot of PD-L1. The settings on record: glycan lost; control: untreated HepG2 cells.

As to PD-L1: GALNT16 overexpression, the “other: ubiquitination” value in series [1] was “decreases”. PD-L1: tunicamycin (2 µg/mL, 18 h): in the series “Western blot of PD-L1”, the expression_or_secretion entry is “decreases”.
